Where two headings read alike, the source gives them in different places. Side-chain parts run from the residue outwards. [ ]: non-standard residue; d: D form. NMeK = CN[C@@H](CCCCN)C(=O)O; BDPFL = dye Where only a bound is given, the exact number is not on record here.

What all share (assay): competition
The target in test [1] is T1, integrin αvβ5 (human, UniProt P06756).
T1 chain 1: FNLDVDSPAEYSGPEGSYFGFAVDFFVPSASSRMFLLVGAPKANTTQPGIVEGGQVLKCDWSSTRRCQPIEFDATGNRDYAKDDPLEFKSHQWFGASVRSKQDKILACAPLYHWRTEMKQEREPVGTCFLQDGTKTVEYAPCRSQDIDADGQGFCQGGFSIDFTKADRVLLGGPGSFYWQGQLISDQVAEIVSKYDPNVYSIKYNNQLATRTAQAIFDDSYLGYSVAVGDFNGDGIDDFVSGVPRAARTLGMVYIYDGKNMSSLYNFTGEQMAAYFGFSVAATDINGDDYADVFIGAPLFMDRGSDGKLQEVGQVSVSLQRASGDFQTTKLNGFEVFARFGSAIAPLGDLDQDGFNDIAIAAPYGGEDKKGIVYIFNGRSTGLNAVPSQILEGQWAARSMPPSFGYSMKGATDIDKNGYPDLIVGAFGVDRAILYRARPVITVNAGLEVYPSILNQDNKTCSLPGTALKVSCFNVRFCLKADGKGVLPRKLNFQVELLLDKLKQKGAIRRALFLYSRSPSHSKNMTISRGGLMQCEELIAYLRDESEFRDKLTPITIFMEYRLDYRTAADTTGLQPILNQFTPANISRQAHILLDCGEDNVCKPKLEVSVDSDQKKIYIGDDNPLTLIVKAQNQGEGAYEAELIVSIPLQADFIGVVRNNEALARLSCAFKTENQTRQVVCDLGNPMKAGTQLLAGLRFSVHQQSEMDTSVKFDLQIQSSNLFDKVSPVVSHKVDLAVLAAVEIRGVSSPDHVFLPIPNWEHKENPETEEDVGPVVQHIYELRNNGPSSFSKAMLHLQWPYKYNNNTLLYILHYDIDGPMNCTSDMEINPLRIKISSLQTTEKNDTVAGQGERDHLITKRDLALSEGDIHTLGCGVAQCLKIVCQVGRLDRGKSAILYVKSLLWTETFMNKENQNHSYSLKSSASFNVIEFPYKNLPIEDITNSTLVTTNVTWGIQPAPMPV
T1 chain 2: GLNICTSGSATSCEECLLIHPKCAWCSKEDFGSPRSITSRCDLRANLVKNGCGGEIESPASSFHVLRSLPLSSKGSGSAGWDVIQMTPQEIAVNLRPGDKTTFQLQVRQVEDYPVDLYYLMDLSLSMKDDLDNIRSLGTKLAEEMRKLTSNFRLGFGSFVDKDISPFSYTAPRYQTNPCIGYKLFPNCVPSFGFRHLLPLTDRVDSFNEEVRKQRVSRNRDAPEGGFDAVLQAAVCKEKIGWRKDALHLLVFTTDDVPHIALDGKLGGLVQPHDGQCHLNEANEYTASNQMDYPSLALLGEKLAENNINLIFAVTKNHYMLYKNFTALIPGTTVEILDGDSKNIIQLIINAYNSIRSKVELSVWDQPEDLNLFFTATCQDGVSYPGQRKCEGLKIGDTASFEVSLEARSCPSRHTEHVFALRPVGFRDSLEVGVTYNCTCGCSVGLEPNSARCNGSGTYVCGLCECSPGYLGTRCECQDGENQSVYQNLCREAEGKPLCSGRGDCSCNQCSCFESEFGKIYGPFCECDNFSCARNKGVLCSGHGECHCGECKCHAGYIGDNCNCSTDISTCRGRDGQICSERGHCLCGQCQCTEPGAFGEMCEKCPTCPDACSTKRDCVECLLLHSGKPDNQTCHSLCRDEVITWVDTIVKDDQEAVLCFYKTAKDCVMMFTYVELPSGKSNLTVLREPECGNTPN

Test [2] addresses T2, integrin α5β1 (human, UniProt P08648).
For test [3], the target named is T3, integrin αvβ8 (human, UniProt P06756).
T3 chain 1: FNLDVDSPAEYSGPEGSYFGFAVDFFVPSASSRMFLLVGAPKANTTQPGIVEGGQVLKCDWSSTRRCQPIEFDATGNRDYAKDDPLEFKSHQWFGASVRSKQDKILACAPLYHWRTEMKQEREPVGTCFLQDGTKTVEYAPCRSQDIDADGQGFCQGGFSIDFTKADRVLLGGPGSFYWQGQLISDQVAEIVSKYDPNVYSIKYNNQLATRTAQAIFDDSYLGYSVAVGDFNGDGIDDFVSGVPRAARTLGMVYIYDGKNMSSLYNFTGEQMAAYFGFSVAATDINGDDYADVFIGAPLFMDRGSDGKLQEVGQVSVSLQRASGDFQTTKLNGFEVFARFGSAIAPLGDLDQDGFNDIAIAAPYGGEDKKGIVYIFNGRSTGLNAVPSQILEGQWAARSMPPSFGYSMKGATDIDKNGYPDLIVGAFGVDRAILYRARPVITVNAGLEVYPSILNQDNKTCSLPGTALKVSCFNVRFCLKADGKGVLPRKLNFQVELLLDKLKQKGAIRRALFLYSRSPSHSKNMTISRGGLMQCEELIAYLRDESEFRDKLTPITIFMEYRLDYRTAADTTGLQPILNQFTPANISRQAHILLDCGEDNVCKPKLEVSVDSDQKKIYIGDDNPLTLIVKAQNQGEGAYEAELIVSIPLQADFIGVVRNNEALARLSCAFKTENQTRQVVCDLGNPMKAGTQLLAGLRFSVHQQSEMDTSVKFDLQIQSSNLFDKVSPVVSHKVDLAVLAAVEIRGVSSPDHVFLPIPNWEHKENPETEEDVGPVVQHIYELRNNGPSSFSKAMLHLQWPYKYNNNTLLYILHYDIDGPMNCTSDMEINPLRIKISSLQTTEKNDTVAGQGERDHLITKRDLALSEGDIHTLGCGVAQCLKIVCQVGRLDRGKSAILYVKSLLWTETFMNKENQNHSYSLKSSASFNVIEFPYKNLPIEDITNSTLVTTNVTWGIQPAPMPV
T3 chain 2: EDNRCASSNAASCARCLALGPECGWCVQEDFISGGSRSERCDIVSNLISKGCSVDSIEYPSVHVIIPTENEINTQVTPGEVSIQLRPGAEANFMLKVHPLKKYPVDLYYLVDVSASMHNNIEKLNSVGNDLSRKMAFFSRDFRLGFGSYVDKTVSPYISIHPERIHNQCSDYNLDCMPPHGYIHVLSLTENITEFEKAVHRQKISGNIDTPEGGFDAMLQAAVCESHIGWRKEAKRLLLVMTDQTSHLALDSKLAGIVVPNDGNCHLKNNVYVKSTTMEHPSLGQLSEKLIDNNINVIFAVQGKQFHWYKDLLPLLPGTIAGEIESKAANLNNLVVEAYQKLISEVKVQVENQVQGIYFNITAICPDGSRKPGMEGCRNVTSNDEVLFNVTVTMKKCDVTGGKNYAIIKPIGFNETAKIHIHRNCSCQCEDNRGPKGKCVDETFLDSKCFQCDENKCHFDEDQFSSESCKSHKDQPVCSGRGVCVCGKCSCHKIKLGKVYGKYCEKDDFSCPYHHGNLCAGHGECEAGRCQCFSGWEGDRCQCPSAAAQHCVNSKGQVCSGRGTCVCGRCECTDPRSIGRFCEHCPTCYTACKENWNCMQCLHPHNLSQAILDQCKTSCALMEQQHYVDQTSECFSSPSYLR

The target in test [4] is integrin αIIbβ3 (human, UniProt P08514).
The target of test [5] is T4, integrin αvβ6 (human, UniProt P06756).
T4 chain 1: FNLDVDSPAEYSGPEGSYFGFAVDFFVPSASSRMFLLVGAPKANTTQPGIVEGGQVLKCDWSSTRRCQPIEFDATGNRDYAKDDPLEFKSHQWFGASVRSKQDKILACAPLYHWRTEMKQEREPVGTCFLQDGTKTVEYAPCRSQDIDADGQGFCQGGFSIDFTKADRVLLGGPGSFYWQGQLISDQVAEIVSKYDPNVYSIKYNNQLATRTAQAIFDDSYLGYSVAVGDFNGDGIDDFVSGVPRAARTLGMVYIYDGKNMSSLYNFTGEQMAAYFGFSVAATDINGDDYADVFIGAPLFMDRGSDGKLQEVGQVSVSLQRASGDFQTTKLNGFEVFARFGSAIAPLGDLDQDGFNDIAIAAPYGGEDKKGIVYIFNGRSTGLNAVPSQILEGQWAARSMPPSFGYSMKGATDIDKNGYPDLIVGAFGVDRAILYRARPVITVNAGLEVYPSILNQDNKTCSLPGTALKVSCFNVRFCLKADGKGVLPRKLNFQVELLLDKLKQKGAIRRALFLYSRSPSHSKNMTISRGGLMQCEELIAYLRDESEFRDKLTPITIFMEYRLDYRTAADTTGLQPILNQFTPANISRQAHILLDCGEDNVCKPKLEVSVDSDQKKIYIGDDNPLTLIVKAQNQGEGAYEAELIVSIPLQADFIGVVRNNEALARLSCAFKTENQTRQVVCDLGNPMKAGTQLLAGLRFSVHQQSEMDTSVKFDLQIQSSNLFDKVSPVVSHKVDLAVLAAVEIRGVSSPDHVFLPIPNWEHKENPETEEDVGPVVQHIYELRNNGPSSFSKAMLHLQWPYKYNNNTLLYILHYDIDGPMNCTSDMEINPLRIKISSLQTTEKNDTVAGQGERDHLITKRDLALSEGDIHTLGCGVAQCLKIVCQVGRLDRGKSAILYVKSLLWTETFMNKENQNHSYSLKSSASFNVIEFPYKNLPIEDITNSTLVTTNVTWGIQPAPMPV
T4 chain 2: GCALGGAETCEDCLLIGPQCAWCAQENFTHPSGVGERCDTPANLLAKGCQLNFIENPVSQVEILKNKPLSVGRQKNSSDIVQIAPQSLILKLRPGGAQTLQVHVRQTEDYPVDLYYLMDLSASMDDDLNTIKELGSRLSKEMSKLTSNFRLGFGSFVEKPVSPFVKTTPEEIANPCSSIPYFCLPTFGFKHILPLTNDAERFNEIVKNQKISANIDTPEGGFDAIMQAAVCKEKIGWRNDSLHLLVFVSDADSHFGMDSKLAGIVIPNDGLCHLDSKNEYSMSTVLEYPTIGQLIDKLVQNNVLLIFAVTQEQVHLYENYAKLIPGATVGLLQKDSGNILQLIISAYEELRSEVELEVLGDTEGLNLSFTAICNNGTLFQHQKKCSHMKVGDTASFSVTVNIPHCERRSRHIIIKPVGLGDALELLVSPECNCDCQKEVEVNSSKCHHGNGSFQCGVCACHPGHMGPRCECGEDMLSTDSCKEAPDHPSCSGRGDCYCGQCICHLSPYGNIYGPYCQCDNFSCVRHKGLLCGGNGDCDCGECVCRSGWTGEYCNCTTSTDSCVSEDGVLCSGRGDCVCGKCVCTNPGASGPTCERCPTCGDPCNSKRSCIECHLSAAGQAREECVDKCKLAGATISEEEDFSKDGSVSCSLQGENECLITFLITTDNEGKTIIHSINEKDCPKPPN

The target of test [6] is T5, integrin αvβ3 (human, UniProt P06756).
T5 chain 1: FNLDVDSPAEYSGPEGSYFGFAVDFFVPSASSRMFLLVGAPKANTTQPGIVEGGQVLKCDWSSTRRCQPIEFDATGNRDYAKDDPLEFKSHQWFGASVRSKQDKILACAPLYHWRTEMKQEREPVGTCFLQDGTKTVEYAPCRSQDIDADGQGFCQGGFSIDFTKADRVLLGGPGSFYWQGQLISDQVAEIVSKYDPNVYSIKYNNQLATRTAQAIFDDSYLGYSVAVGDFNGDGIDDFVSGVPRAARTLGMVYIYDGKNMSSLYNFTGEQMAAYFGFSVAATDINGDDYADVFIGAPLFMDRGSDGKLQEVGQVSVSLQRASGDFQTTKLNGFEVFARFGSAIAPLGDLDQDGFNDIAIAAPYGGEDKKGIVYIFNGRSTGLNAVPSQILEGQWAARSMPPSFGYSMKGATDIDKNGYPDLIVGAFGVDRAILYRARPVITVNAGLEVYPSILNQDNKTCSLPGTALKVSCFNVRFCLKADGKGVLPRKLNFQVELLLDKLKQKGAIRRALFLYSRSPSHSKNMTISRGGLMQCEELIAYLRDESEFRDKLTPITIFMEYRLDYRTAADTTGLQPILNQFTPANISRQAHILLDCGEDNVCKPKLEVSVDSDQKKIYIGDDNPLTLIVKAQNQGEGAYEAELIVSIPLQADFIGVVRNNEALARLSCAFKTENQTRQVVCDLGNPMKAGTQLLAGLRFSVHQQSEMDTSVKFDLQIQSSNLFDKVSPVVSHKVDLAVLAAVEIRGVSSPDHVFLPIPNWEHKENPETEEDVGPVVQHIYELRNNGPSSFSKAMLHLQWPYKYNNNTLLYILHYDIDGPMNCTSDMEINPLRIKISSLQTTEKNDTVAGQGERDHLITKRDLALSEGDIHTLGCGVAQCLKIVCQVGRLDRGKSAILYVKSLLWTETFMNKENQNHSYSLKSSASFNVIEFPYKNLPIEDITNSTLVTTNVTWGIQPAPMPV
T5 chain 2: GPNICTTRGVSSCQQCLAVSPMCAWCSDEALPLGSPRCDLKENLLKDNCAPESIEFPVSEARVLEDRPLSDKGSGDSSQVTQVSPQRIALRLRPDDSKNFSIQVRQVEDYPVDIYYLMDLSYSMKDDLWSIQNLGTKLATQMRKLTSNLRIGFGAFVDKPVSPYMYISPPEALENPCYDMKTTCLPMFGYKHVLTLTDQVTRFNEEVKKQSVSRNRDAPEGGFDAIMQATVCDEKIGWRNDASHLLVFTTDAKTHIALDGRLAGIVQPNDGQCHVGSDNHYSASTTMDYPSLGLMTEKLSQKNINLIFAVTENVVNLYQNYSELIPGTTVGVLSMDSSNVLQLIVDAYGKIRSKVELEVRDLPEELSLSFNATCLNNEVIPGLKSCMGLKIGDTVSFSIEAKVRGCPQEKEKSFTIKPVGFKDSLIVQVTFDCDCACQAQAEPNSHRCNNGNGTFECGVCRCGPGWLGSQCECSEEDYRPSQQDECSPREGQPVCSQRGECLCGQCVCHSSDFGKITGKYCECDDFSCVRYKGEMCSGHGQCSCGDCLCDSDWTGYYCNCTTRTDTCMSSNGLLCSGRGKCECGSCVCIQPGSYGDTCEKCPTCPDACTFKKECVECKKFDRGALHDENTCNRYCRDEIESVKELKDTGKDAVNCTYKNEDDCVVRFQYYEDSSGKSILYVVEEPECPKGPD

The target in test [7] is T3, integrin αvβ8.
Test [8] deals with T4, integrin αvβ6.
The target of test [9] is T1, integrin αvβ5.
Test [10] addresses T2, integrin α5β1. This is another data set of the same source.
Test [11] concerns the target T5, integrin αvβ3.

T2 sequence (P08648 42-1049, chain 1 of 2): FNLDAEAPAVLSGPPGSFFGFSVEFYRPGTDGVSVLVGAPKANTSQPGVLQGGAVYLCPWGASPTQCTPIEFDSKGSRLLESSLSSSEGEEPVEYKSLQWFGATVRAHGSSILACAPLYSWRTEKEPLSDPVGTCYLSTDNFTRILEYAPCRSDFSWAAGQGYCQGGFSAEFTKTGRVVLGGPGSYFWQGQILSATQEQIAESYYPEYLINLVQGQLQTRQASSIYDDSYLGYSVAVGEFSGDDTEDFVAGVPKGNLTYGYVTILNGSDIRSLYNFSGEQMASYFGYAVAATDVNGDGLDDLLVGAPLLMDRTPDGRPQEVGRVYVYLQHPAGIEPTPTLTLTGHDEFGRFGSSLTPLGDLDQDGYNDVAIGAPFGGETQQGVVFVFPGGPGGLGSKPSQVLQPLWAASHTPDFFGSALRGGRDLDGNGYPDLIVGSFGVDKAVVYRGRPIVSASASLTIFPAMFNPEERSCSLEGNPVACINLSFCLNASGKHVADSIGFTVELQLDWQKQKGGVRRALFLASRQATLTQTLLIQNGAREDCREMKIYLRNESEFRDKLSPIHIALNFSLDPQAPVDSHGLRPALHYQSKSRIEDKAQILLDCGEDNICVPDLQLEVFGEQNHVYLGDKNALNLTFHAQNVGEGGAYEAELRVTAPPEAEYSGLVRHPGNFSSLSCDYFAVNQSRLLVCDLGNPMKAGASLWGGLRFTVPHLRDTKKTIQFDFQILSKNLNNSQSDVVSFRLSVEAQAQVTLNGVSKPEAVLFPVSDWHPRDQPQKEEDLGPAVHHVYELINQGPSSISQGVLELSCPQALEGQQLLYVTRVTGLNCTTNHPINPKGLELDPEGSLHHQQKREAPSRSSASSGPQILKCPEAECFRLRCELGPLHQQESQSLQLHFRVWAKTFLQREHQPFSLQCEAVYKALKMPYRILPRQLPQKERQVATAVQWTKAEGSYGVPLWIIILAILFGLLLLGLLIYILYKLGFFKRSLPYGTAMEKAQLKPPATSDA
T2 sequence (chain, as listed by the source, chain 2 of 2): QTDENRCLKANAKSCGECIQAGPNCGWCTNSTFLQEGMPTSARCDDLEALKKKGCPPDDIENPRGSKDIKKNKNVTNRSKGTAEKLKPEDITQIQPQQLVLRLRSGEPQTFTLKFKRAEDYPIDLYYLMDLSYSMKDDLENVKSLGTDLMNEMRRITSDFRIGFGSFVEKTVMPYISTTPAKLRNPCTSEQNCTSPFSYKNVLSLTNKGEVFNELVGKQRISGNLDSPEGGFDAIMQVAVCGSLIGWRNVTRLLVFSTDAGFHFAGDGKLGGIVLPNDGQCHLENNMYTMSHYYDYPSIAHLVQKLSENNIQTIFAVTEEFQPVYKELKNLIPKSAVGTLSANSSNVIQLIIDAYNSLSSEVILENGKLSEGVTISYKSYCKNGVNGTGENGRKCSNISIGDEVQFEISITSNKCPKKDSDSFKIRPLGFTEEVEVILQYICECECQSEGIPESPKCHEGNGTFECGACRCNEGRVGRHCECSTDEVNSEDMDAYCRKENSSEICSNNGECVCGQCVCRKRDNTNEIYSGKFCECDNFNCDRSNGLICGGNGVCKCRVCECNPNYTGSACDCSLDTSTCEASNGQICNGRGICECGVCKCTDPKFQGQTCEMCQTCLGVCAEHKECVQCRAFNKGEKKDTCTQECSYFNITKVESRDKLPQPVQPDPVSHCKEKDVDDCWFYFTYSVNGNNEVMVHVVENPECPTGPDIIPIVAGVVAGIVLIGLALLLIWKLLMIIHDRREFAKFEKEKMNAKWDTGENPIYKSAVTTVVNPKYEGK

B1: Compound 9 (peptide)
chain: cyclo(RGDL[dP][NMeK](Ac)GL)
For orientation: IC50 means the midpoint of a concentration-inhibition curve. Regarding B1, the IC50 is greater than 1000 nM in test [1]; greater than 1000 nM in test [2]; 6 nM in test [3]; greater than 1000 nM in test [4]; 201 nM in test [5]; 423 nM in [6].

B2: Compound 9f (9-G(P)6G-BDPFL) (peptide)
chain: cyclo(RGDL[dP][NMeK]([Gly-Pro-Pro-Pro-Pro-Pro-Pro-Gly-BDPFL])GL)
On to B2, for which the IC50 in test [7] was 7.98 nM; in [8], 453 nM; in test [9] it was greater than 10000 nM; in [10], 782 nM; in test [11] it was 42 nM.

Source of the values: patent US20200087347 (published 2020).
